{"source": "patent US8722052B2", "about": "“Vaccinia virus protein A46 peptide and use thereof” (priority 2008, dated 2014)", "key": {"[1]": {"target": "T1, TLR9 (Mus musculus, UniProt Q9EQU3)", "T1 construct": "using the murine macrophage cell line RAW264.7; endogenous in cells; host or cells: RAW264.7", "T1 sequence (Q9EQU3 26-1032)": "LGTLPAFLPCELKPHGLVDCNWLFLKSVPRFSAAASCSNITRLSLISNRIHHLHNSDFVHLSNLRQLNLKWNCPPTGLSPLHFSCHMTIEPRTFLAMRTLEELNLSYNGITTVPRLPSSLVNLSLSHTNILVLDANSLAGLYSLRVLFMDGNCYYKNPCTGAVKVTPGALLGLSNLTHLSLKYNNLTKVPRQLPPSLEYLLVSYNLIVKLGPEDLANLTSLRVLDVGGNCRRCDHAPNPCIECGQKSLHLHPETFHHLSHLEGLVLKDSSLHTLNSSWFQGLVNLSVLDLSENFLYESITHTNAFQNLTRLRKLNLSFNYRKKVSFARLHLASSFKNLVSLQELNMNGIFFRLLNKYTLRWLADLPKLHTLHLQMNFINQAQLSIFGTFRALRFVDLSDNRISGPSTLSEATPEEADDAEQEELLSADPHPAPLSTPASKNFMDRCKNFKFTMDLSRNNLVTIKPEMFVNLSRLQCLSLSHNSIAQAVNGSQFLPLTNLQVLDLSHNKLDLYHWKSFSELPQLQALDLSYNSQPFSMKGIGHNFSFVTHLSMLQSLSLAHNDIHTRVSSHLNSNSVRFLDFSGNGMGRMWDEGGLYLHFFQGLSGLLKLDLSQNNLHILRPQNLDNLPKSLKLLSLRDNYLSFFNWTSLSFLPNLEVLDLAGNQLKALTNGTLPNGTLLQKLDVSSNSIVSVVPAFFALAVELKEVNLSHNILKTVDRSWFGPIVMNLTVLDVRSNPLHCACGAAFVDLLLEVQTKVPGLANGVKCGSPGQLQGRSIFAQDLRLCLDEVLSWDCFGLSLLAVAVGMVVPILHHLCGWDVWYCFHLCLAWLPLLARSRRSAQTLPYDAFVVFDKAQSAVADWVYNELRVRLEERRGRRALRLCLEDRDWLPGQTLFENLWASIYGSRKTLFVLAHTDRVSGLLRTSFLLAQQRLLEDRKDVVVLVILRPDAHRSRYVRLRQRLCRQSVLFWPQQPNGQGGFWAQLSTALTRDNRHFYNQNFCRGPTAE", "assay": "CpG-induced TNFα in RAW264.7 cells, ELISA", "type": "cell-based, murine", "details": "peptide 5 or 20 μM 1 h before CpG, supernatant 24 h", "description": "FIGS. 2A and B are bar charts showing the effect of peptides derived from A46 on CpG-induced TNFα in murine RAW264.7 cells. A46 peptides were added to the cells at a concentration of 5 or 20 μM 1 hour before stimulating with […] CpG. Supernatants were collected 24 hours after stimulation and assayed for TNFα by ELISA. No peptides were added into the control wells (black bars). (A) peptides A461-A467 (SEQ ID NO. 17 to 23). (B) peptides A468-A4614 (SEQ ID NO. 24 to 30) (excluding A4612 SEQ ID NO. 28). Data is representative of at least two experiments each performed in triplicate and is expressed as mean±s.d;\nCytokine and chemokine production from cells or mouse serum was measured by ELISA using Duoset kits from R&D systems, according to the manufacturer's instructions.\nThese peptides were initially screened for effects on TLR-induced gene induction in vitro using the murine macrophage cell line RAW264.7. Unmethylated CpG dinucleotides of bacterial DNA sequences are detected by TLR9, which leads to production of pro-inflammatory cytokines and chemokines, including TNFα via a MyD88-dependent pathway (Latz et al, 2004). […] The effect of the peptides on two TLR9-induced cytokines, namely TNFα and MIP-2, was measured by ELISA. TNFα is NFκB-dependent, and MIP-2 as well as NFκB also requires IRFs for transcriptional activation (De Filippo et al, 2008). […]"}, "[2]": {"tested_on": "THP-1 cells", "assay": "MTT cell viability assay, THP-1", "type": "cell-based, human", "details": "peptide 5 and 10 μM, 10 ng/ml LPS", "description": "FIGS. 7A and B are bar charts showing the effect of A464 on TNFα production and cell viability of human THP-1 cells stimulated with LPS. Cells were seeded in 96 well plates (3×10^5 cells/ml) and differentiated with 200 nM PMA for 24 hours before treatment. A464 (SEQ ID NO. 20) was added to the cells at a concentration of 5 or 10 μM 1 hour before stimulating with 10 ng/ml LPS. Supernatants were collected 6 hours after stimulation and assayed for TNFα by ELISA (A) and cells were assayed for viability by the MTT assay (B.). No peptides were added to the control wells (black bars). Data is representative of at least three experiments each performed in triplicate and is expressed as mean±s.d;\nFIGS. 9A and B are bar charts showing the effect of A464 on Pam3CysK4-induced TNFα in human THP-1 cells. Cells were seeded in 96 well plates (3×10^5 cells/ml) and differentiated with 200 nM PMA for 24 hours before treatment. […] Data is representative of at least three experiments each performed in triplicate and is expressed as mean±s.d;\nCell viability was measured by assessing mitochondrial function using an MTT (3-(4,5-Dimethylthiazol-2-yl)-2,5-diphenyltetrazolium bromide) assay. […] MTT was then removed and 200 μl per well of dimethyl sulphoxide (DMSO) was added and cells incubated for 20 min at 37° C. in the dark, prior to absorbance being read at 595 nm on a spectrophotometer."}}}
{"sequence": "KYSFKLILAEYRRRRRRRRR [Peptide A464]", "values": [{"measurement": "inhibition of CpG-induced TNFα production", "setting": "[1]", "result": "little or no effect"}, {"measurement": "cytotoxicity (MTT)", "setting": "[2]", "result": "no cytotoxicity"}]}
